Results from US20110044984A1 (Chugai, published 2011).

Molecular target: T1, extracellular domain of mouse AXL (mAXL-ECD; R&D) (mouse, UniProt Q00993 19-445)
T1 construct: extracellular domain; Bought protein
T1 sequence (looked up): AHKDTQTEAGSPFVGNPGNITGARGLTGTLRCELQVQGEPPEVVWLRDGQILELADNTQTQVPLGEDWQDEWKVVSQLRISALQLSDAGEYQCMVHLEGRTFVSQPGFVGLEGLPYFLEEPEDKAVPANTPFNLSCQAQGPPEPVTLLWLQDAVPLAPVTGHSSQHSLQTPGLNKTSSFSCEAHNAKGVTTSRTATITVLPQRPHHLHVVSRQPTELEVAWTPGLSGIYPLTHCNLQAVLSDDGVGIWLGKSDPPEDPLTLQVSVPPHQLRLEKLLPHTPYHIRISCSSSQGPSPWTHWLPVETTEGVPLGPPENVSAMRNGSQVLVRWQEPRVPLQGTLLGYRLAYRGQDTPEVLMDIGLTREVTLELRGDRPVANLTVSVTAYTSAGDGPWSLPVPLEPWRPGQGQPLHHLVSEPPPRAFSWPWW
Test: ELISA, antibody at 3 µg/mL on coated mAXL-ECD
Procedure: After the extracellular domain of mouse AXL (hereinafter referred to as mAXL-ECD; R&D) was diluted with coating buffer (100 mM sodium bicarbonate buffer, pH 9.6) to 2 μg/mL, 100 μL was dispensed into a 96-well plate (Nunc-Immuno™ 96 MicroWell™ MaxiSorp™ plates; Nalge Nunc International). After the plate was placed in a refrigerator overnight, the antibody solution in the plate was removed, 200 μL/well of diluent buffer (BlockingOne; Nacalai Tesque) was dispensed, and then blocked for two hours at room temperature. After the removal of the diluent buffer, the anti-AXL antibody prepared above diluted to 3 μg/mL with diluent buffer was dispensed at 100 μL/well, and allowed to stand for 1.5 hours at room temperature. After the removal of the antibody solution, the wells were washed three times with tPBS(−). […] After the removal of the antibody solution, the wells were washed three times with tPBS(−). 100 μL/well of alkaline phosphatase chromogenic substrate solution (BluePhos Microwell Phosphatase Substrate System, Kirkegaad & Perry Laboratories) was dispensed, followed by color development at room temperature. The absorbance at 650 nm was then measured with a microplate reader (Emax, Molecular Devices).

binding result: binds
B1: anti-AXL monoclonal antibody Ax225 (hybridoma AXL No. 225 #070402, Accession No. FERM BP-10854) (antibody, V domains shown)
VH: QVQLKQSGPGLVAPSQSLSITCTVSGLSLTSFGVDWVRQSPGKGLEWLGVIWGGGSTNYNSALKSRLSISKDNSKSQVFLKMNSLQTDDTAMYYCAGEGSKYGAWFAYWGQGTLVTVSS
VL: DVLMTQTPLSLPVSLGDQASISCRSSQNIVHTNGNTYLEWYLQKPGQSPELLIYKVSNRFSGVPDRFSGSGSGTDFTLKISRVEAEDLGVYYCFQGSHIPFTFGTGTKLEIK
notes: Mouse antibody from a hybridoma; Variable genes were amplified with constant region primers MHCg1 (H chain) and MLCk (L chain); also called AXL225 mouse antibody
